{"source": "patent US20160177324A1", "about": "“NOVEL PROTEIN AND GENE RELATED TO FLAVONOID O-METHYLTRANSFERASE (FOMT) AND THEIR USES THEREFORE” (INSTITUTE OF BOTANY, THE CHINESE ACADEMY OF SCIENCES, priority 2013, published 2016)", "molecules": {"B1": {"name": "PtFOMT: similar O-methyltransferase cloned from Paeonia tenuifolia, SEQ ID NO: 4; differs from PsFOMT at positions 13, 85, 87, 205 (protein, listed as Paeonia tenuifolia)", "chain": "MAESDRKGILKSGALLKYILETSVYPREHEQLKQLRQATVDKYKYWSVMNVPADEGQFLSMLLKIMNAKKTIEVGVFTGYSLLTTARALPTDAKITAIDPDGEAYETGLPFIKKAGVEHKINYIQADAMSVLDDLVTNGKEEGSFDFAFVDADKENYAKYHEPLMKLVKIGGIIGYDNTLWFGSVALSDGDEMKEFQEKGRRIFTEFNTFLAADPRIELAHISIGDGLALCRRLY"}, "B2": {"name": "PtFOMT-T85A: site-directed mutant of PtFOMT, T85A (protein)", "chain": "B1 chain with T85A"}, "B3": {"name": "PtFOMT-G13E: site-directed mutant of PtFOMT, G13E (protein)", "chain": "B1 chain with G13E"}, "B4": {"name": "PtFOMT-T205R: site-directed mutant of PtFOMT, T205R (protein)", "chain": "B1 chain with T205R"}, "B5": {"name": "PtFOMT-R87L: site-directed mutant of PtFOMT, R87L (protein)", "chain": "B1 chain with R87L"}}, "key": {"[1]": {"assay": "Comparison of activities among recombinant polypeptides with site mutagenesis", "format": "biochemical", "details": "for Activity (%), portion of recombinant protein activity compared with PsFOMT: Cy3G5G as substrate", "procedure": "The reaction system was according to Hugueney et al. with some modification (Hugueney, P., et al., A novel cation-dependent O-methyltransferase involved in anthocyanin methylation in grapevine. Plant Physiology, 2009. 150(4): p. 2057-2070.). Purified recombinant FOMT (2 μg) was assayed in a final volume of 200 μL containing 200 μM SAM, 1 mM MgCl2, 14 mM β-mercaptoethanol, 100 mM Tris, pH 7.5, and 20 μM flavonoid substrates. Incubation was performed at 35° C. and stopped with 200 μL methanol containing 2% formic acid. For enzyme kinetic studies, purified FOMT was incubated based on the above condition with the exception that a range of substrate concentrations from 5 to 200 μM were used for Km determination. Reaction product was analyzed by a Dionex HPLC system (Sunnyvale, Calif.), equipped with a P680 HPLC pump, an UltiMate 3000 autosampler, a TCC-100 thermostated column compartment and a Dionex PDA100 photodiode array detector. The analytical column was C18 column of ODS 80Ts QA (150 mm×4.6 mm, 5 μm i.d., Tosoh, Tokyo) protected with a C18 guard cartridge (Shanghai ANPEL Scientific Instrument, Shanghai). The following solvent and gradient were used: A, 10% aqueous formic acid; B, methanol; constant gradient from 10 to 36% B within 15 min and back to 10% B in 3 min; the flow rate was 0.8 mL min^−1; Column temperature was maintained at 35° C.; 20 μL of analyte was injected. Chromatograms were obtained at 525 nm for anthocyanins and 350 nm for other flavonoids, and photodiode array spectra were recorded from 200 to 800 nm. Km and Vmax values were calculated from Lineweaver-Burk plots.\nTo validate the key amino acid responsible for the activity, site-directed mutagenesis was carried out using the PCR method and Fast Mutagenesis System (TransGen), and primer sequences used are given in Table 1. Four constructs were built following the template sequence of PtFOMT, named as PtFOMT-G13E, PtFOMT-T85A, PtFOMT-R87L, and PtFOMT-T205R. The corresponding recombinant proteins were purified and the catalytic activities were examined. […] The other mutants have no significant improved activity compared with PtFOMT. The leucine at 87-position is a vital residue for the methyltransferase activity."}, "[2]": {"system": "Nicotiana tabacum cv.Nc89", "assay": "Flavonoid O-methyltransferase activity in transgenic tobacco", "format": "in vivo", "from_the_text": "The full length genes were introduced with a BamHl site and an XhoI site on 5′- and 3′-end by PCR with primers SEQ No. 5 & 6. The double digested fragment of interest and eukaryotic expression vector pBI121 with BamHl site and an XhoI were ligated. Then the appropriate constructs were introduced into Agrobacterium strain EHA105 by electroporation.\nLeaf of Nicotiana tabacum cv.Nc89 plant (Donated by Professor Silan Dai, Beijing Forestry University) was disinfected by 75% ethanol for 30 s, followed by 2% sodium hypochlorite for 3 minutes, and then washed with sterile water for three times. The leaf was cut into squares (25 mm^2) A single colony of Agrobacterium strain EHA105 with pBI121-FOMT construct was used to inoculate with 2 mL of YEB medium (per liter: 5 g of beef extract, 1 g of yeast extract, 5 g of sucrose, and 0.5 g of MgSO4.7H2O), supplemented with 50 mg mL^−1 kanamycin and 25 mg mL^−1 Rifampicin. The culture was incubated at 28° C. until OD600 0.6-0.8, and the bacteria were pelleted by centrifugation at 5000 rpm for 5 minutes. The cells were washed by MS liquid medium and resuspended pellets with appropriate volume of MS liquid. The tobacco leaf squares were dipped into the bacteria solution for 8 minutes and cultivated on MS media containing 2.0 mg L^−1 6-benzylaminopurine (6-BA), 0.2 mg L^−1 1-naphthylacetic acid (NAA), and 500 mg L^−1 ceflomine. The explants were transferred to fresh selected medium after two weeks. When the regenerating plantlets grow to 2 cm, move them to MS media containing 0.2 mg L^−1 NAA to induce root. After four weeks, the transgenic tobacco plantlets were transferred to pots and kept in the greenhouse till flowering. The positive transgenic lines were selected by PCR, and transgenic plantlets with empty plasmid were used as control. The anthocyanins in transgenic petals were detected with an HPLC system.\nAppropriate amount of sample (petal, fruits) was powdered with mortars and pestles and extracted for the first time with 2 mL 2% (v/v) formic acid methanol solution shaken in a QL-861 vortex (Kylinbell Lab Instruments, Jiangsu, China), sonicated in KQ-500DE ultrasonic cleaner (Ultrasonic instruments, Jiangsu Kunshan, China) at 20° C. for 20 min, centrifuged in SIGMA 3K30 (SIGMA centrifugers, Germany) (12000 rpm, 10 min), and the supernatant was collected. Additional 2 mL and 1 mL extraction solution was supplemented to the residue, and repeated aforesaid operation for the second and third times. All extract was pooled and filtrated through 0.22 μm reinforced nylon membrane filters (Shanghai ANPEL, Shanghai, China) before the HPLC-DAD and HPLC-ESI-MS^n analyses. Three replicates were performed for each sample. […]\nHPLC-ESI-MS^n analysis was carried with an Agilent-1100 HPLC system equipped with a UV detector coupled to a LC-MSD Trap VL ion-trap mass spectrometer via an ESI source (Agilent Technologies, Palo Alto, Calif.). […] The MS conditions were listed as follow: negative-ion (NI) mode; capillary voltage of 3.5 kV; a nebulization pressure of 241.3 kPa; and a gas (N2) temperature of 350° C. with flow rate of 6.0 L min^−1 Capillary offset voltage was 77.2 V. MS spectra were recorded over the range from m/z 50-1000."}}, "note": "Where a chain is given by its changes, count along the chain named. In names and notes the source's numbering stands.", "data": [{"molecule": "B1", "values": [{"measurement": "Activity (%), portion of recombinant protein activity compared with PsFOMT", "setting": "[1]; Incubation 5 min", "value": 0, "unit": "%"}, {"measurement": "Activity (%), portion of recombinant protein activity compared with PsFOMT", "setting": "[1]; Incubation 30 min", "value": 4.2, "unit": "%"}, {"measurement": "flower color compared with control lines", "setting": "[2]; transgenic tobacco flowers", "value": "no obvious difference"}, {"measurement": "methyltransferase function in tobacco petal (new anthocyanin Pn3R detected)", "setting": "[2]; transgenic tobacco petals vs empty vector", "value": "performed as a methyltransferase"}]}, {"molecule": "B2", "values": [{"measurement": "Activity (%), portion of recombinant protein activity compared with PsFOMT", "setting": "[1]; Incubation 5 min", "value": 0, "unit": "%"}, {"measurement": "Activity (%), portion of recombinant protein activity compared with PsFOMT", "setting": "[1]; Incubation 30 min", "value": 14.0, "unit": "%"}]}, {"molecule": "B3", "values": [{"measurement": "Activity (%), portion of recombinant protein activity compared with PsFOMT", "setting": "[1]; Incubation 5 min", "value": 0, "unit": "%"}, {"measurement": "Activity (%), portion of recombinant protein activity compared with PsFOMT", "setting": "[1]; Incubation 30 min", "value": 18.5, "unit": "%"}]}, {"molecule": "B4", "values": [{"measurement": "Activity (%), portion of recombinant protein activity compared with PsFOMT", "setting": "[1]; Incubation 5 min", "value": 0, "unit": "%"}, {"measurement": "Activity (%), portion of recombinant protein activity compared with PsFOMT", "setting": "[1]; Incubation 30 min", "value": 38.1, "unit": "%"}]}, {"molecule": "B5", "values": [{"measurement": "Activity (%), portion of recombinant protein activity compared with PsFOMT", "setting": "[1]; Incubation 5 min", "value": 100.7, "unit": "%"}, {"measurement": "Activity (%), portion of recombinant protein activity compared with PsFOMT", "setting": "[1]; Incubation 30 min", "value": 104.5, "unit": "%"}, {"measurement": "catalytic activity of site-directed mutants", "setting": "[1]; recombinant purified proteins", "value": "regain the activity equal to PsFOMT"}]}]}
